Five molecules from article PMC5332438 can be followed below.

Holding throughout (assay): co-IP
The target of assay [1] is human mitochondrial adenine nucleotide translocator, C-terminal c-Myc-DDK tag (human) (UniProt P12235).
For assay [2], the target named is human translocase of outer mitochondrial membrane 22 homolog, C-terminal c-Myc and DDK tags (human) (UniProt Q9NS69).
Assay [3] deals with Full length human BKCa alpha-subunit starting from Met1, 3xHA-tagged, with DEC splice insert (human).
The target of assay [4] is Full length human BKCa alpha-subunit starting from Met1, 3xHA-tagged, without DEC (human).
The target in assay [5] is human BKCa alpha-subunit starting from Met3, untagged (human).
Chain of human BKCa alpha-subunit starting from Met3, untagged (human) (Q12791 whole entry): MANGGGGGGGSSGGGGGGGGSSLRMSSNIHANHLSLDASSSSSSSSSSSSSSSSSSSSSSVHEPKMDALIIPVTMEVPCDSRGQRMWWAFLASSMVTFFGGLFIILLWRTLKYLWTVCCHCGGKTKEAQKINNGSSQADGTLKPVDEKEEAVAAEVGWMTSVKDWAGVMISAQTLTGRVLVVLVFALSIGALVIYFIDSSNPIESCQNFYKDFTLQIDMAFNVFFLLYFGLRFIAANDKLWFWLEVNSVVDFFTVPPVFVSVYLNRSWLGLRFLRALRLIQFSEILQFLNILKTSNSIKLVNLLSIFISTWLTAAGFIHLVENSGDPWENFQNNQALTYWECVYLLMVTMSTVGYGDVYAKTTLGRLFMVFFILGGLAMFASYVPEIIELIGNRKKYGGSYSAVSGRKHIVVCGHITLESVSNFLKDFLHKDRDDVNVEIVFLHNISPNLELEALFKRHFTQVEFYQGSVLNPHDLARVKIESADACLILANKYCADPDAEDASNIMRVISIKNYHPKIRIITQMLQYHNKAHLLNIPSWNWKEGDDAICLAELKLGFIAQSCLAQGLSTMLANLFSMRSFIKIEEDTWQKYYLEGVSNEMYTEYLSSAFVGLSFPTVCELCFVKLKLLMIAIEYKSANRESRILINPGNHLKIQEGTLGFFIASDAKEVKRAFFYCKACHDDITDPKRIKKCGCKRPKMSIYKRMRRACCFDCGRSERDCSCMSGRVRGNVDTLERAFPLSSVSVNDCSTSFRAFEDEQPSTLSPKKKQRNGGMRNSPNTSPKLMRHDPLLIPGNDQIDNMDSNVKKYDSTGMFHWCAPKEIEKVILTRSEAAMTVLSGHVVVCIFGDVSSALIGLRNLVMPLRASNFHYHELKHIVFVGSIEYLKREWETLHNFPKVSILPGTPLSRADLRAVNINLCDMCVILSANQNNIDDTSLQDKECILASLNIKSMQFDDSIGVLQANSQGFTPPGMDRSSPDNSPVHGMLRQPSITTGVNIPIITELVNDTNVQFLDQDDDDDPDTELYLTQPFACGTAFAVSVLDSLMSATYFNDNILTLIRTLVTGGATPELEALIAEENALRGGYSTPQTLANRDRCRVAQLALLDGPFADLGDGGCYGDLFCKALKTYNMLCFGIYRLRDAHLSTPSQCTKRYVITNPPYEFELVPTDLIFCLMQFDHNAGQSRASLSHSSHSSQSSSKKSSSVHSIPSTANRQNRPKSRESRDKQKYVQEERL

Chain of Full length human BKCa alpha-subunit starting from Met1, 3xHA-tagged, with DEC splice insert (human) (Q12791 whole entry, canonical isoform): as the sequence (Q12791 whole entry) above
Chain of Full length human BKCa alpha-subunit starting from Met1, 3xHA-tagged, without DEC (human) (Q12791 whole entry): as above

In assay [1], c-Myc-BKCa 1-711 (domain or fragment) had a Co-IP efficiency (compared to wild-type BKCa) of 0.91.

Molecule “c-Myc-BKCa 322-1113 (domain or fragment)” yielded a Co-IP efficiency (compared to wild-type BKCa) in assay [1] of 0.17. The same molecule registered a Co-IP efficiency (wild-type BKCa = 1) in assay [2] of 0.33.

Consider “c-Myc-BKCa 679-1113 (domain or fragment)”, for which, in assay [1], the Co-IP efficiency (compared to wild-type BKCa) worked out at 0.33. The molecule also registered a Co-IP efficiency (wild-type BKCa = 1) in assay [2] of 0.42.

B1: human translocase of outer mitochondrial membrane 22 homolog, C-terminal c-Myc and DDK tags (natural protein)
chain: MAAAVAAAGAGEPQSPDELLPKGDAEKPEEELEEDDDEELDETLSERLWGLTEMFPERVRSAAGATFDLSLFVAQKMYRFSRAALWIGTTSFMILVLPVVFETEKLQMEQQQQLQQRQILLGPNTGLSGGMPGALPSLPGKI
As to B1, the Co-IP efficiency in assay [3] turned out to be 0.91; in assay [4] it was 0.89.

B2: human mitochondrial adenine nucleotide translocator, C-terminal c-Myc-DDK tag (natural protein)
chain: MGDHAWSFLKDFLAGGVAAAVSKTAVAPIERVKLLLQVQHASKQISAEKQYKGIIDCVVRIPKEQGFLSFWRGNLANVIRYFPTQALNFAFKDKYKQLFLGGVDRHKQFWRYFAGNLASGGAAGATSLCFVYPLDFARTRLAADVGKGAAQREFHGLGDCIIKIFKSDGLRGLYQGFNVSVQGIIIYRAAYFGVYDTAKGMLPDPKNVHIFVSWMIAQSVTAVAGLVSYPFDTVRRRMMMQSGRKGADIMYTGTVDCWRKIAKDEGAKAFFKGAWSNVLRGMGGAFVLVLYDEIKKYV
Regarding B2, the Co-IP efficiency (BKCa-DEC = 1) in assay [5] was 0.69.
